Laboratory results: US20240252614A1

Assays:
Conditions in all cases: remark: other sources report otherwise
[1] = target: hMPV085 (hMPV A), Q6WB98; assay: BLI, 53C stress
[2] = target: hMPV078 (hMPV A), Q6WB98; assay: BLI, 53C stress
[3] = target: hMPV082 (hMPV A), Q6WB98; assay: BLI, 53C stress
[4] = target: hMPV088 (hMPV A), Q6WB98; assay: BLI, 53C stress
[5] = target: hMPV A F WT Control (hMPV A), Q6WB98; assay: BLI, 53C stress
[6] = target: hMPV079 (hMPV A), Q6WB98; assay: BLI, 53C stress
[7] = target: hMPV081 (hMPV A), Q6WB98; assay: BLI, 53C stress
[8] = target: hMPV083 (hMPV A), Q6WB98; assay: BLI, 53C stress
[9] = target: hMPV097 (hMPV A), Q6WB98; assay: BLI, 53C stress
[10] = target: hMPV090 (hMPV A), Q6WB98; assay: BLI, 53C stress
[11] = target: hMPV086 (hMPV A), Q6WB98; assay: BLI, 53C stress
[12] = target: hMPV084 (hMPV A), Q6WB98; assay: BLI, 53C stress
[13] = target: hMPV087 (hMPV A), Q6WB98; assay: BLI, 53C stress
[14] = target: hMPV089 (hMPV A), Q6WB98; assay: BLI, 53C stress
[15] = target: hMPV058 (hMPV A), Q6WB98; assay: BLI, 53C stress
[16] = target: hMPV045 (hMPV A), Q6WB98; assay: BLI, 53C stress
[17] = target: hMPV067 (hMPV A), Q6WB98; assay: BLI, 53C stress
[18] = target: hMPV068 (hMPV A), Q6WB98; assay: BLI, 53C stress
[19] = target: hMPV069 (hMPV A), Q6WB98; assay: BLI, 53C stress
[20] = target: hMPV055 (hMPV A), Q6WB98; assay: BLI, 53C stress
[21] = target: hMPV063 (hMPV A), Q6WB98; assay: BLI, 53C stress
[22] = target: hMPV049 (hMPV A), Q6WB98; assay: BLI, 53C stress
[23] = target: hMPV060 (hMPV A), Q6WB98; assay: BLI, 53C stress
[24] = target: hMPV050 (hMPV A), Q6WB98; assay: BLI, 53C stress
[25] = target: hMPV052 (hMPV A), Q6WB98; assay: BLI, 53C stress
[26] = target: hMPV046 (hMPV A), Q6WB98; assay: BLI, 53C stress
[27] = target: hMPV A F WT Control (hMPV A), Q6WB98; assay: BLI, 53C stress; remark: listed apart in the source
[28] = target: hMPV054 (hMPV A), Q6WB98; assay: BLI, 53C stress
[29] = target: hMPV053 (hMPV A), Q6WB98; assay: BLI, 53C stress
[30] = target: hMPV066 (hMPV A), Q6WB98; assay: BLI, 53C stress
[31] = target: hMPV075 (hMPV A), Q6WB98; assay: BLI, 53C stress
[32] = target: hMPV071 (hMPV A), Q6WB98; assay: BLI, 53C stress
[33] = target: hMPV059 (hMPV A), Q6WB98; assay: BLI, 53C stress
[34] = target: hMPV048 (hMPV A), Q6WB98; assay: BLI, 53C stress
[35] = target: hMPV062 (hMPV A), Q6WB98; assay: BLI, 53C stress
[36] = target: hMPV077 (hMPV A), Q6WB98; assay: BLI, 53C stress
[37] = target: hMPV047 (hMPV A), Q6WB98; assay: BLI, 53C stress
[38] = target: hMPV061 (hMPV A), Q6WB98; assay: BLI, 53C stress
[39] = target: hMPV043 (hMPV A), Q6WB98; assay: BLI, 53C stress
[40] = target: hMPV044 (hMPV A), Q6WB98; assay: BLI, 53C stress
[41] = target: hMPV085 (hMPV A), Q6WB98; assay: BLI, 58C stress
[42] = target: hMPV A F WT Control (hMPV A), Q6WB98; assay: BLI, 58C stress
[43] = target: hMPV081 (hMPV A), Q6WB98; assay: BLI, 58C stress
[44] = target: hMPV090 (hMPV A), Q6WB98; assay: BLI, 58C stress

B1: MPE8 mAb (antibody, V domains shown)
VH: EVQLVESGGGLVKPGGSLRLSCAASGFTFSSYSMNWVRQAPGKGLEWVSSISASSSYSDYADSAKGRFTISRDNAKTSLFLQMNSLRAEDTAIYFCARARATGYSSITPYFDIWGQGTLVTVSS
VL: QSVVTQTPSVSGAPGQRVTISCTGSSSNIGAGYDVHWYQQLPGTAPKLLIYDNNNRPSGVPDRFSASKSGTSASLAITGLQAEDEADYYCQSYDRNLSGVFGTGTKVTVL
Response Shift [1]: 0.889 nm
Response Shift [2]: 0.939 nm
Response Shift [3]: 0.985 nm
Response Shift [4]: 0.937 nm
Response Shift [5]: 0.096 nm
Response Shift [6]: 0.861 nm
Response Shift [7]: 0.915 nm
Response Shift [8]: 0.796 nm
Response Shift [9]: 0.935 nm
Response Shift [10]: 0.909 nm
Response Shift [11]: 0.86 nm
Response Shift [12]: 0.908 nm
Response Shift [13]: 0.903 nm
Response Shift [14]: 0.928 nm
Response Shift [15]: -0.05 nm
Response Shift [16]: -0.025 nm
Response Shift [17]: -0.041 nm
Response Shift [18]: 0.002 nm
Response Shift [19]: -0.003 nm
Response Shift [20]: -0.078 nm
Response Shift [21]: -0.008 nm
Response Shift [22]: -0.065 nm
Response Shift [23]: -0.06 nm
Response Shift [24]: -0.014 nm
Response Shift [25]: -0.045 nm
Response Shift [26]: -0.012 nm
Response Shift [27]: -0.017 nm
Response Shift [28]: -0.064 nm
Response Shift [29]: -0.032 nm
Response Shift [30]: -0.003 nm
Response Shift [31]: -0.069 nm
Response Shift [32]: -0.039 nm
Response Shift [33]: -0.039 nm
Response Shift [34]: -0.056 nm
Response Shift [35]: 0.006 nm
Response Shift [36]: -0.041 nm
Response Shift [37]: -0.051 nm
Response Shift [38]: -0.059 nm
Response Shift [39]: 0.01 nm
Response Shift [40]: 0.534 nm
Response Shift [41]: 0.757 nm
Response Shift [42]: 0.006 nm
Response Shift [43]: 0.945 nm
Response Shift [44]: 0.906 nm
